This passage reports binding result and EC50 results from patent US20250388669A1 (published 2025).

One assay has as its target CD40 (UniProt P25942 21-193, limits assumed). As to the kind of experiment: FCM or ELISA, graded.
The target of assay [1] is T1, B7H3 (human, UniProt Q5ZPR3 29-466, limits assumed).
T1 sequence (looked up): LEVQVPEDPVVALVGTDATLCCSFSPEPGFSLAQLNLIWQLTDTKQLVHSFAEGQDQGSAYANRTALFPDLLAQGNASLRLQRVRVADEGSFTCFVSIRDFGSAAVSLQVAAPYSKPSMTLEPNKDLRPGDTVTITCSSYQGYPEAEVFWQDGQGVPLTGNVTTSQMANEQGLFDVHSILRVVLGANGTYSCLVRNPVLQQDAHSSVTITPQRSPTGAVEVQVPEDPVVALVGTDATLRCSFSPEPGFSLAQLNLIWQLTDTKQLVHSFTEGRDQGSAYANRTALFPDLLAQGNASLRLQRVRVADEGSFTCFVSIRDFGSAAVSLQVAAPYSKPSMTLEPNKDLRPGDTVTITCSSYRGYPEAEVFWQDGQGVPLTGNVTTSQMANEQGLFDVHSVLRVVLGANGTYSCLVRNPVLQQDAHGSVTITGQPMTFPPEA
Nature of the assay: ELISA or FCM (Example 2). Background: An ELISA detects its analyte on a solid surface through an enzyme-linked reagent.

In another assay the target is CD3 (human). Nature of the assay: CD3 binding, as described in Example 2 (ELISA or FCM).
A further assay addresses T2, CD137 (human, UniProt Q07011 24-186).
T2 construct: In the reporter assay it is whole, on GS-H2-huCD137 cells; also called 4-1BB; huCD137
Nature of the assay: CD137 binding, FCM or ELISA.

In assay [2] the target is T3, B7H3 (UniProt Q5ZPR3 29-466, limits assumed).
T3 sequence (looked up): T1 sequence (looked up)
Nature of the assay: FCM or ELISA, graded.

Sequence of CD40 (P25942 21-193 limits assumed): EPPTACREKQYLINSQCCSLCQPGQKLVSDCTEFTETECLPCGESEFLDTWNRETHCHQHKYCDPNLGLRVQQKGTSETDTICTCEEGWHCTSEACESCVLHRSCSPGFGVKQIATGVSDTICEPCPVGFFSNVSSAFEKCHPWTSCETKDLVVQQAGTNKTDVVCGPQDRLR
Sequence of CD3 (human) (chain, as listed by the source): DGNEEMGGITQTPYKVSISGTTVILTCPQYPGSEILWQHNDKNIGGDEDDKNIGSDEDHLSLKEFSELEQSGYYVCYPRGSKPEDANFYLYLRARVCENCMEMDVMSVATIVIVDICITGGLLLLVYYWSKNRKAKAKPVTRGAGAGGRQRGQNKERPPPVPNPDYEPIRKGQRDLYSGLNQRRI

B1: TM559 (antibody, V domains shown)
VH: EVQLVESGGGLVQPGGSLRLSCAASGFTFTNYGLHWVRQAPGKGLEWVSSISPSGGVTYYRDSVKGRFTISRDNSKNTLYLQMNSLRAEDTAVYYCAKPFLGWGGANWIAHWGQGTLVTVSS
VL: DIQMTQSPSSLSASVGDRVTITCLASEDISNDLAWYQQKPGKAPKLLIYFVDRLLDGVPSRFSGSGSGTDFTLTISSLQPEDFATYYCQQSYKYPPTFGQGTKLEIK
notes: Parent mAb; also called Anti-CD40 TM559
With B1, the binding result with CD40 was “binds”.

B2: Ly1963 (other)
chain 1: QVQLVQSGAEVKKPGASVKVSCKASGYTFTSYVMHWVRQKPGQGLEWIGYINPYNEGTESTDKFKGRATMTSDKSTSTVYMELSSLRSEDTAVYYCASIYYGYEGTYFGVWGQGTLVTVSSASTKGPSVFPLAPSSKSTSGGTAALGCLVKDYFPEPVTVSWNSGALTSGVHTFPAVLQSSGLYSLSSVVTVPSSSLGTQTYICNVNHKPSNTKVDKKVEPKSCGGGGSGGGGSGGGGSGGGGSEVQLVESGGGLVQPGGSLRLSCAASGFTFSTYAMNWVRQAPGKGLEWVGRIRSKYNNYATYYADSVKGRFTISRDDSKNSLYLQMNSLKTEDTAVYYCVRHGNFGNSYVSWFAYWGQGTLVTVSSGGGGSDKTHTCPPCPAPEAAGPSVFLFPPKPKDTLMISRTPEVTCVVVDVSHEDPEVKFNWYVDGVEVHNAKTKPREEQYNSTYRVVSVLTVLHQDWLNGKEYKCKVSNKALPAPIEKTISKAKGQPREPQVYTLPPSREEMTKNQVSLWCLVKGFYPSDIAVEWESNGQPENNYKTTPPVLDSDGSFFLYSKLTVDKSRWQQGNVFSCSVMHEALHNHYTQKSLSLSPGGGGGSGGGGSGGGGSGGGGSQVQLVQSGAEVKKPGASVKVSCKASGYTFAGFEMHWVRQAPGQGLEWMGAIDPKTGGTDYNQKFKDRVTMTRDTSISTAYMELSRLRSDDTAVYYCARDLGYFDVWGQGTLVTVSS
chain 2: QVQLVQSGAEVKKPGASVKVSCKASGYTFTSYVMHWVRQKPGQGLEWIGYINPYNEGTESTDKFKGRATMTSDKSTSTVYMELSSLRSEDTAVYYCASIYYGYEGTYFGVWGQGTLVTVSSASTKGPSVFPLAPSSKSTSGGTAALGCLVKDYFPEPVTVSWNSGALTSGVHTFPAVLQSSGLYSLSSVVTVPSSSLGTQTYICNVNHKPSNTKVDKKVEPKSCGGGGSGGGGSGGGGSGGGGSQAVVTQEPSLTVSPGGTVTLTCRSSTGAVTTSNYANWVQQKPGQAPRGLIGGTNKRAPWTPARFSGSLLGGKAALTITGAQAEDEADYYCALWYSNLWVFGGGTKLTVLGGGGSDKTHTCPPCPAPEAAGPSVFLFPPKPKDTLMISRTPEVTCVVVDVSHEDPEVKFNWYVDGVEVHNAKTKPREEQYNSTYRVVSVLTVLHQDWLNGKEYKCKVSNKALPAPIEKTISKAKGQPREPQVYTLPPSREEMTKNQVSLSCAVKGFYPSDIAVEWESNGQPENNYKTTPPVLDSDGSFFLVSKLTVDKSRWQQGNVFSCSVMHEALHNHYTQKSLSLSPGGGGGSGGGGSGGGGSGGGGSDIQMTQSPSSLSASVGDRVTITCRASQDIRSNLNWYQQKPGGAVKLLIYYTSRLHSGVPSRFSGSGSGTDYTLTISSLQPEDFATYFCQQSEKLPRTFGGGTKVEIR
light: EIVLTQSPATLSLSPGERATLSCRASSSVSYMHWYQQKPGQAPRPWIYATSNLASGIPARFSGSRSGTDYTLTISSLEPEDFAVYYCQQWSSNTLTFGGGTKVEIKRTVAAPSVFIFPPSDEQLKSGTASVVCLLNNFYPREAKVQWKVDNALQSGNSQESVTEQDSKDSTYSLSSTLTLSKADYEKHKVYACEVTHQGLSSPVTKSFNRGEC
notes: Tri-specific antibody: B7H3 Fabs, central CD3 Fv, terminal CD137 Fv; Flexible linker is (G4S)4
The term EC50 denotes the concentration needed to bring the measured effect to its halfway point. High values mean lower potency in that assay, low ones higher potency in that assay. In the case of B2, the binding result with B7H3 [1] and in the assay with CD137 was “binds” each time. Further, the concentration giving a half-maximal response (EC50) in the assay with CD3 was 0.74 µg/mL.

B3: Ly2279 (bispecific antibody)
heavy 1: not shown
heavy 2: QVQLVQSGAEVKKPGASVKVSCKASGYTFTSYVMHWVRQKPGQGLEWIGYINPYNEGTESTDKFKGRATMTSDKSTSTVYMELSSLRSEDTAVYYCASIYYGYEGTYFGVWGQGTLVTVSSASTKGPSVFPLAPSSKSTSGGTAALGCLVKDYFPEPVTVSWNSGALTSGVHTFPAVLQSSGLYSLSSVVTVPSSSLGTQTYICNVNHKPSNTKVDKKVEPKSCGGGGSGGGGSGGGGSGGGGSDIQMTQSPSSVSASVGDRVTITCRASQGIYSWLAWYQQKPGKAPNLLIYTASTLQSGVPSRFSGSGSGTDFTLTISSLQPEDFATYYCQQANIFPLTFGGGTKVEIKGGGGSDKTHTCPPCPAPEAAGPSVFLFPPKPKDTLMISRTPEVTCVVVDVSHEDPEVKFNWYVDGVEVHNAKTKPREEQYNSTYRVVSVLTVLHQDWLNGKEYKCKVSNKALPAPIEKTISKAKGQPREPQVYTLPPSREEMTKNQVSLSCAVKGFYPSDIAVEWESNGQPENNYKTTPPVLDSDGSFFLVSKLTVDKSRWQQGNVFSCSVMHEALHNRFTQKSLSLSPG
light: B2 light
notes: B7H3 Fabs x central CD40 Fv (TM383)
Regarding B3, the binding result in the assay with B7H3 [2] was “binds”.

B4: Ly2424 (bispecific antibody, human IgG1, kappa)
heavy 1: not shown
heavy 2: QVQLVQSGAEVKKPGASVKVSCKASGYTFTSYVMHWVRQKPGQGLEWIGYINPYNEGTESTDKFKGRATMTSDKSTSTVYMELSSLRSEDTAVYYCASIYYGYEGTYFGVWGQGTLVTVSSASTKGPSVFPLAPSSKSTSGGTAALGCLVKDYFPEPVTVSWNSGALTSGVHTFPAVLQSSGLYSLSSVVTVPSSSLGTQTYICNVNHKPSNTKVDKKVEPKSCDKTHTCPPCPAPEAAGPSVFLFPPKPKDTLMISRTPEVTCVVVDVSHEDPEVKFNWYVDGVEVHNAKTKPREEQYNSTYRVVSVLTVLHQDWLNGKEYKCKVSNKALPAPIEKTISKAKGQPREPQVYTLPPSREEMTKNQVSLSCAVKGFYPSDIAVEWESNGQPENNYKTTPPVLDSDGSFFLVSKLTVDKSRWQQGNVFSCSVMHEALHNRFTQKSLSLSPGGGGGSGGGGSGGGGSGGGGSDIQMTQSPSSVSASVGDRVTITCRASQGIYSWLAWYQQKPGKAPNLLIYTASTLQSGVPSRFSGSGSGTDFTLTISSLQPEDFATYYCQQANIFPLTFGGGTKVEIK
light: B2 light
notes: B7H3 Fabs x terminal CD40 Fv (TM383)
Take B4: the binding result with CD40 and with B7H3 [2] was “binds” throughout.

B5: Ly2428 (bispecific antibody)
heavy 1: QVQLVQSGAEVKKPGASVKVSCKASGYTFTSYVMHWVRQKPGQGLEWIGYINPYNEGTESTDKFKGRATMTSDKSTSTVYMELSSLRSEDTAVYYCASIYYGYEGTYFGVWGQGTLVTVSSASTKGPSVFPLAPSSKSTSGGTAALGCLVKDYFPEPVTVSWNSGALTSGVHTFPAVLQSSGLYSLSSVVTVPSSSLGTQTYICNVNHKPSNTKVDKKVEPKSCGGGGSGGGGSGGGGSGGGGSEVQLVESGGGLVQPGGSLRLSCAASGFTFTNYGLHWVRQAPGKGLEWVSSISPSGGVTYYRDSVKGRFTISRDNSKNTLYLQMNSLRAEDTAVYYCAKPFLGWGGANWIAHWGQGTLVTVSSGGGGSDKTHTCPPCPAPEAAGPSVFLFPPKPKDTLMISRTPEVTCVVVDVSHEDPEVKFNWYVDGVEVHNAKTKPREEQYNSTYRVVSVLTVLHQDWLNGKEYKCKVSNKALPAPIEKTISKAKGQPREPQVYTLPPSREEMTKNQVSLWCLVKGFYPSDIAVEWESNGQPENNYKTTPPVLDSDGSFFLYSKLTVDKSRWQQGNVFSCSVMHEALHNHYTQKSLSLSPG
heavy 2: QVQLVQSGAEVKKPGASVKVSCKASGYTFTSYVMHWVRQKPGQGLEWIGYINPYNEGTESTDKFKGRATMTSDKSTSTVYMELSSLRSEDTAVYYCASIYYGYEGTYFGVWGQGTLVTVSSASTKGPSVFPLAPSSKSTSGGTAALGCLVKDYFPEPVTVSWNSGALTSGVHTFPAVLQSSGLYSLSSVVTVPSSSLGTQTYICNVNHKPSNTKVDKKVEPKSCGGGGSGGGGSGGGGSGGGGSDIQMTQSPSSLSASVGDRVTITCLASEDISNDLAWYQQKPGKAPKLLIYFVDRLLDGVPSRFSGSGSGTDFTLTISSLQPEDFATYYCQQSYKYPPTFGQGTKLEIKGGGGSDKTHTCPPCPAPEAAGPSVFLFPPKPKDTLMISRTPEVTCVVVDVSHEDPEVKFNWYVDGVEVHNAKTKPREEQYNSTYRVVSVLTVLHQDWLNGKEYKCKVSNKALPAPIEKTISKAKGQPREPQVYTLPPSREEMTKNQVSLSCAVKGFYPSDIAVEWESNGQPENNYKTTPPVLDSDGSFFLVSKLTVDKSRWQQGNVFSCSVMHEALHNRFTQKSLSLSPG
light: B2 light
notes: B7H3 Fabs x central CD40 Fv (TM559)
Regarding B5, the binding result with CD40 and in the assay with B7H3 [2] was “binds” in each case.
